Laboratory results taken from patent publication US20230151109A1 (UCB, published 2023).

Columns and labels:
[1] = target: T1, full-length CD9 expressed on cells (human, UniProt P21926 2-228); experiment: selection by binding to cells expressing full-length CD9; method not described
T1 construct: also called human CD9
T1 sequence: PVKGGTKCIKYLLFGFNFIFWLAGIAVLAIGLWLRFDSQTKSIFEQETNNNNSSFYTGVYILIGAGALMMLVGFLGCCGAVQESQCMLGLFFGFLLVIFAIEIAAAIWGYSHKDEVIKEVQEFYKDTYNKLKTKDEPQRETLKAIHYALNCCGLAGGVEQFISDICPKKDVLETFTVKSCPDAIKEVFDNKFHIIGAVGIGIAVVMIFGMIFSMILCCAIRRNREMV

[2] = target: T2, recombinant human CD9 long extracellular loop 2-human Fc fusion protein (10015-CD, R&D Systems) (human, UniProt P21926 112-195); experiment: biolayer interferometry (Octet RED384), CD9 loop 2-Fc on AHC biosensors, Fab-Y 10 ug/mL
T2 construct: Bought protein; The parts are ordered as in the printed name; also called CD9-loop2; long extracellular loop 2 peptide; not shown: human Fc of the bought fusion protein
T2 sequence: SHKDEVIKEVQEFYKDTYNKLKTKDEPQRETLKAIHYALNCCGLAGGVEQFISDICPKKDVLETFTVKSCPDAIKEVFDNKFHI
Method: Seven different CD9 antibodies each providing unique functional activity with CD137, CD7 and HVEM antibodies in a bispecific combination were analysed for their ability to bind the long extracellular loop 2 of CD9. CD9 contains two extracellular loops: a short extracellular loop (loop 1: 34-55 in SEQ ID NO:1) and a long extracellular loop (loop 2: 112-195 in SEQ ID NO:1). We used biolayer interferometry to assess binding of our panel of CD9 Fab-Y antibodies (selected for ability to bind full-length CD9 expressed on cells) to the long extracellular loop 2 peptide, using the Octet® RED384 System (FortéBio) with anti-hIgG Fc Capture (AHC) Biosensors (FortéBio) at room temperature. Firstly, an array of 8 sensors was dipped in kinetics buffer (PBS 0.1%, BSA 0.02%, Tween 20) for 120 seconds to provide a baseline signal. Sensors were then moved to wells containing 200 μl of recombinant human CD9 long extracellular loop 2-human Fc fusion protein (10015-CD, R&D Systems®) at 2 μg/mL in kinetics buffer to immobilize the protein to the biosensor (100 seconds), followed by a second baseline step (180 seconds) in kinetics buffer to equilibrate the biosensors now coated with the CD9 long extracellular loop 2-human Fc fusion protein. No detachment of the peptide was observed during this step. […]

- binding result [1]: binds
- binding result [2]: binds
B1: anti-CD9 Fab-Y antibody 7272 (Fab, V domains shown)
VH: QSLEESGGRLVTPGTPLTLTCTVSGFSLSSYAMGWVRQAPGKGLEWIGAIGSITATGYARWAKGRFSISKTSTTVDLKMTSPTTEDTATYFCAREIYVGSAYAFDIWGPGTLVTVSS
VL: AYDMTQTPASVEVAVGDTVTIKCQASQSISNYLAWYQQKPGQPPKLLIYLASTLASGVPSRFKGSGSGTEFTLTISDLECADAATYYCQQGYIDNVNKGFGGGTEVVVK
notes: Tested as Fab-Y: Fab fragment joined through a peptide linker at CH1 to the GCN4 peptide (clone 7P14P); also called VR7272
